Patent US20230203131A1 (OSAKA UNIVERSITY, published 2023)

Assays:
[1] = biological target: Perlecan-fused Chimera-511 (Chimera-511P), not treated with thrombin (human) (UniProt P02675); assay: solid-phase integrin binding assay (ELISA): Chimera-511P coated, α6β1 integrin titrated, as in Example 1 (5)
[2] = biological target: T1, α6β1 integrin (UniProt P23229 24-1011; P05556 21-728); assay: solid-phase integrin binding assay (ELISA): LM511E8 coated at 10 nM, α6β1 integrin titrated 0.001-100 nM in 1 mM MnCl2
T1 construct: Soluble protein added to plates and detected with a biotin-labeled Velcro antibody
T1 sequence (P23229 other isoform, or with tags, fused parts or gaps, chain 1 of 2): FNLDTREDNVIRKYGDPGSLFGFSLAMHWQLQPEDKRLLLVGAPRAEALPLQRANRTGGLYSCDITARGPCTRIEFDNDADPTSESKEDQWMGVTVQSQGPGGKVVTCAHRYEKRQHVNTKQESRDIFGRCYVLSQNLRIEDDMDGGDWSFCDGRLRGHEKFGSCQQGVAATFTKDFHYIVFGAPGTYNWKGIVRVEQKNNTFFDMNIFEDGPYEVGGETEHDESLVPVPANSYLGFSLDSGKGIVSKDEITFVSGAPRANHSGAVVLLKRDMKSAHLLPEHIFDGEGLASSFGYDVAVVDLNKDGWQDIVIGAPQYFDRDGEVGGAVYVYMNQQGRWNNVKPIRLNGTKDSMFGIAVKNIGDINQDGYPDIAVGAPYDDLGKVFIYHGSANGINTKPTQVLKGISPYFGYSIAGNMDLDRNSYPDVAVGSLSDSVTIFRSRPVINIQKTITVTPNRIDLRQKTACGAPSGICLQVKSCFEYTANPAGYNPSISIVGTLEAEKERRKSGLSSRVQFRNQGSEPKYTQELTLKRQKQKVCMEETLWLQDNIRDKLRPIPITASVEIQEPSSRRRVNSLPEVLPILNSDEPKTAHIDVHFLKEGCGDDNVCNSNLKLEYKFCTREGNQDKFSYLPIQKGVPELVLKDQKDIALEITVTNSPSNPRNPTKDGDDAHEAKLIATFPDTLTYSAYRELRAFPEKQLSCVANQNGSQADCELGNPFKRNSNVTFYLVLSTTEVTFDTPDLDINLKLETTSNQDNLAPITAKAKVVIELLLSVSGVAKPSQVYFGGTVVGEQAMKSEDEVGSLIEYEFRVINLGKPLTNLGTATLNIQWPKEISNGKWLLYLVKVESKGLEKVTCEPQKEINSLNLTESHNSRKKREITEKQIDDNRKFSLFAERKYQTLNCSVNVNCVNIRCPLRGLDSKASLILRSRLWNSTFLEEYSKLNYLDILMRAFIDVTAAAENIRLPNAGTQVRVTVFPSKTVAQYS
T1 sequence (P05556 21-728, chain 2 of 2): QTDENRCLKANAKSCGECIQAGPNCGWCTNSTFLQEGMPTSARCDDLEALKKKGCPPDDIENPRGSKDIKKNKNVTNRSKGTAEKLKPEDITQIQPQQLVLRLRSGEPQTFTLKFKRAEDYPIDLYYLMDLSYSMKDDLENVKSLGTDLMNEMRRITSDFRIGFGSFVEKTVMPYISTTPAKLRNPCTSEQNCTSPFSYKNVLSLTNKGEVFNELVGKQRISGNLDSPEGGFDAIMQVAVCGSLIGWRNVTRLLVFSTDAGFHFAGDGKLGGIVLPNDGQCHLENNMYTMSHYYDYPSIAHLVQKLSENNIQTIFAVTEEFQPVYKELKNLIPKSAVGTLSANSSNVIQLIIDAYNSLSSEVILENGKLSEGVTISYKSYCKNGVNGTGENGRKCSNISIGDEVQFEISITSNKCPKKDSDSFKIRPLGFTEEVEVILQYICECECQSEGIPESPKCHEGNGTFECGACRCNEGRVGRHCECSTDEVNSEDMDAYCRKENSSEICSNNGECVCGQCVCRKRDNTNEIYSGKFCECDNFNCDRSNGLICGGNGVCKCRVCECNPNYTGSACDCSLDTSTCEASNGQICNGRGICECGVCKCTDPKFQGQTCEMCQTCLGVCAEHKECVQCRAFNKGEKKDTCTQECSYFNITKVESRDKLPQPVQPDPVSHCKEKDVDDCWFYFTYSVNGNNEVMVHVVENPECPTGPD
Experimental: (§1) The plates were incubated with gentle agitation at 4° C. overnight for coating.
(§2) Integrin binding assay was performed according to the method of Ido et al. (Hiroyuki Ido et al. J. Biol. Chem., 282, 11144-11154, 2007). The specific procedure was as follows. […] Next, TBST supplemented with 1% BSA was added at 200 μL/well, and the plates were incubated with agitation on a shaker (B. Braun Biotech International CERTOMAT MT) at room temperature for 1 hour for blocking. The plates were washed once with 200 μL/well of 0.1% BSA/TBST. α6β1 integrin was diluted to final concentrations of 0.001 nM, 0.003 nM, 0.01 nM, 0.03 nM, 0.1 nM, 0.3 nM, 1 nM, 3 nM, 10 nM, 30 nM, and 100 nM in 0.1% BSA/TBST containing 1 mM MnCl₂ or 10 mM EDTA. The diluted α6β1 integrin solutions were added to the plates at 50 μL/well and allowed to react with agitation using the shaker at room temperature for 3 hours.
(§3) After the reaction, the plates were washed three times with 200 μL/well of 1 mM MnCl₂/0.1% BSA/TBST or 10 mM EDTA/0.1% BSA/TBST. A 1.5 μg/mL solution of a biotin-labeled Velcro antibody (prepared as described in Takagi, J., Erickson, H. P. and Springer, T. A. (2001) Nat. Struct. Biol. 8, 412-416) in 1 mM MnCl₂/0.1% BSA/TBST was added at 50 μL/well and allowed to react with agitation using the shaker at room temperature for 30 minutes. […]

[3] = biological target: T1, α6β1 integrin; assay: solid-phase integrin binding assay (ELISA): Chimera-511 coated at 10 nM, α6β1 integrin titrated 0.001-100 nM in 1 mM MnCl2
Experimental: as §1, §2, §3

α6β1 integrin (from UniProt P23229 24-1011; P05556 21-728) (receptor)
Kd [1]: 0.9 nM

B1: Human laminin 511E8 fragment (human laminin α5β1γ1E8) (other)
chain 1: HHHHHHAAEDAAGQALQQADHTWATVVRQGLVDRAQQLLANSTALEEAMLQEQQRLGLVWAALQGARTQLRDVRAKKDQLEAHIQAAQAMLAMDTDETSKKIAHAKAVAAEAQDTATRVQSQLQAMQENVERWQGQYEGLRGQDLGQAVLDAGHSVSTLEKTLPQLLAKLSILENRGVHNASLALSASIGRVRELIAQARGAASKVKVPMKFNGRSGVQLRTPRDLADLAAYTALKFYLQGPEPEPGQGTEDRFVMYMGSRQATGDYMGVSLRDKKVHWVYQLGEAGPAVLSIDEDIGEQFAAVSLDRTLQFGHMSVTVERQMIQETKGDTVAPGAEGLLNLRPDDFVFYVGGYPSTFTPPPLLRFPGYRGCIEMDTLNEEVVSLYNFERTFQLDTAVDRPCARSKSTGDPWLTDGSYLDGTGFARISFDSQISTTKRFEQELRLVSYSGVLFFLKQQSQFLCLAVQEGSLVLLYDFGAGLKKAVPLQPPPPLTSASKAIQVFLLGGSRKRVLVRVERATVYSVEQDNDLELADAYYLGGVPPDQLPPSLRRLFPTGGSVRGCVKGIKALGKYVDLKRLNTTGVSAGCTADLLVGRAMTFHGHGFLRLALSNVAPLTGNVYSGFGFHSAQDSALLYYRASPDGLCQVSLQQGRVSLQLLRTEVKTQAGFADGAPHYVAFYSNATGVWLYVDDQLQQMKPHRGPPPELQPQPEGPPRLLLGGLPESGTIYNFSGCISNVFVQRLLGPQRVFDLQQNLGSVNVSTGCAPALQAQTPGLGPRGLQATARKASRRSRQPARHPA
chain 2: LQHSAADIARAEMLLEEAKRASKSATDVKVTADMVKEALEEAEKAQVAAEKAIKQADEDIQGTQNLLTSIESETAASEETLFNASQRISELERNVEELKRKAAQNSGEAEYIEKVVYTVKQSAEDVKKTLDGELDEKYKKVENLIAKKTEESADARRKAEMLQNEAKTLLAQANSKLQLLKDLERKYEDNQRYLEDKAQELARLEGEVRSLLKDISQKVAVYSTCL
chain 3: EANDILNNLKDFDRRVNDNKTAAEEALRKIPAINQTITEANEKTREAQQALGSAAADATEAKNKAHEAERIASAVQKNATSTKAEAERTFAEVTDLDNEVNNMLKQLQEAEKELKRKQDDADQDMMMAGMASQAAQEAEINARKAKNSVTSLLSIINDLLEQLGQLDTVDLNKLNEIEGTLNKAKDEMKVSDLDRKVSDLENEAKKQEAAIMDYNRDIEEIMKDIRNLEDIRKTLPSGCFNTPSIEKP
notes: range 2534-3327;range 1561-1786;range 1362-1609; Heterotrimer of α5E8, β1E8 and γ1E8, expressed in 293-F cells; also called LM511E8; LM511 E8; not shown: HA tag, N-terminal; FLAG tag, N-terminal
Kd [2]: 0.59 nM

B2: Chimera-511 (chimeric protein having human fibrinogen fused to an integrin-binding domain of human laminin 511), not treated with thrombin (other)
chain 1: QGVNDNEEGFFSARGHRPLDKKREEAPSLRPAPPPISGGGYRARPAKAAATQKKVERKAPDAGGCLHADPDLGVLCPTGCQLQEALLQQERPIRNSVDELNNNVEAVSQTSSSSFQYMYLLKDLWQKRQKQVKDNENVVNEYSSELEKHQLYIDETVNSNIPTNIGRVRELIAQARGAASKVKVPMKFNGRSGVQLRTPRDLADLAAYTALKFYLQGPEPEPGQGTEDRFVMYMGSRQATGDYMGVSLRDKKVHWVYQLGEAGPAVLSIDEDIGEQFAAVSLDRTLQFGHMSVTVERQMIQETKGDTVAPGAEGLLNLRPDDFVFYVGGYPSTFTPPPLLRFPGYRGCIEMDTLNEEVVSLYNFERTFQLDTAVDRPCARSKSTGDPWLTDGSYLDGTGFARISFDSQISTTKRFEQELRLVSYSGVLFFLKQQSQFLCLAVQEGSLVLLYDFGAGLKKAVPLQPPPPLTSASKAIQVFLLGGSRKRVLVRVERATVYSVEQDNDLELADAYYLGGVPPDQLPPSLRRLFPTGGSVRGCVKGIKALGKYVDLKRLNTTGVSAGCTADLLVGRAMTFHGHGFLRLALSNVAPLTGNVYSGFGFHSAQDSALLYYRASPDGLCQVSLQQGRVSLQLLRTEVKTQAGFADGAPHYVAFYSNATGVWLYVDDQLQQMKPHRGPPPELQPQPEGPPRLLLGGLPESGTIYNFSGCISNVFVQRLLGPQRVFDLQQNLGSVNVSTGCAPALQAQTPGLGPRGLQAHHHHHHHHHH
chain 2: ADSGEGDFLAEGGGVRGPRVVERHQSACKDSDWPFCSDEDWNYKCPSGCRMKGLIDEVNQDFTNRINKLKNSLFEYQKNNKDSHSLTTNIMEILRGDFSSANNRDNTYNRVSEDLRSRIEVLKRKVIEKVQHLARLEGEVRSLLKDISQKVAVYSTCL
chain 3: YVATRDNCCILDERFGSYCPTTCGIADFLSTYQTKVDKDLQSLEDILHQVENKTSEVKQLIKAIQLTYNPDESSKPNMIDAATLKSRKMLEEIMKYEASILTHDSSIEEIMKDIRNLEDIRKTLPSGCFNTPSIEKP
notes: range 31-194;range 2716-3310;range 20-151;range 1761-1786;range 27-132;range 1579-1609; Chains in order: Chimera-α5, Chimera-β1, Chimera-γ1; also called Combination-3
Kd [3]: 0.58 nM
